Data reported in patent US20260242839A1, “GLYCOSIDE PRODUCT BIOSYNTHESIS AND RECOVERY” (Manus Bio Inc., priority 2023, published 2026).

What was measured:
Mog. IIE or Mog. IE = assay: branched glycosylation reactions by cells expressing UGT enzymes; assay type: cell-based, E. coli; details: Mog. IIE or Mog. IE fed; 37° C., 48 hr; LC-MS/MS
Protocol: Mog. IIE or Mog. IE was fed to cells expressing various UGT enzymes. Reactions were incubated at 37° C. for 48 hr. Products were quantified by LC-MS/MS with authentic standards of each compound. “Indirect” evidence means that consumption of substrate was observed.

steviol glycoside = steviol glycoside bioconversion by E. coli expressing individual mutations of UGT SEQ ID NO: 13; assay type: cell-based; details: fold improvement of % conversion vs parent UGT SEQ ID NO: 13; stevia leaf extract and glucose fed; 37° C., 48 hr
Text: A UGT enzyme referred to as MbUGT1,2 is described in U.S. Pat. No. 10,743,567, which is hereby incorporated by reference. An engineered version of MbUGT1,2 (SEQ ID NO: 13) is described in US 2020/0087692, which is hereby incorporated by reference in its entirety. The UGT enzyme of SEQ ID NO: 13 was further engineered to improve activity for steviol glycoside bioconversion. […] Fold improvement is with respect to % steviol glycoside conversion of the parent UGT enzyme (SEQ ID NO: 13). SEQ ID NO: 14 has the following mutations from SEQ ID NO: 13: G5N, F186T, V397S. Stevia leaf extract and glucose were fed to the bioconversion strains. Bioconversion took place at 37° C. for 48 hr. Data were quantified by reverse phase LC DAD to quantify conversion of steviol glycosides.
Fold improvement (FI) is with respect to % steviol glycoside conversion.

| Molecule | C3 1-2 (Mog. IIE or Mog. IE) | C3 1-6 (Mog. IIE or Mog. IE) | C24 1-2 (Mog. IIE or Mog. IE) | C24 1-6 (Mog. IIE or Mog. IE) | FI %Stevioside→rebE (steviol glycoside) | FI %rebA→rebD (steviol glycoside) |
| --- | --- | --- | --- | --- | --- | --- |
| SEQ ID NO: 74: CcUGT_1,6 (Coffea canephora) (protein, listed as Coffea canephora) MAENHATFNVLMLPWLAHGHVSPYLELAMKLTARNFNVYLCSSPATLSSVRSKLTEKFSQSIHLVELHLPKLPELPAEYHTTNGLPPHLMPTLKDAFDMAKPNFCNVLKSLKPDLLIYDLLQPWAPEAASAFNIPAVVFISSSATMTSFGLHFFKNPGTKYPYGNTIFYRDYESVFVENLKKRDRDTYRVVNCMERSSKIILIKGFKEIEGKYFDYFSCLTGKKVVPVGPLVQDPVLDDEDCRIMQWLNKKEKGSTVFVSFGSEYFLSKEDMEEIAHGLELSNVDFIWVVRFPKGENIVIEETLPKGFFERVGERGLVVNGWAPQAKILTHPNVGGFVSHCGWNSVMESMKFGLPIVAMPMHLDQPINARLIEEVGAGVEVLRDSKGKLHRERMAETINKVTKEASGEPARKKARELQEKLELKGDEEIDDVVKELVQLCATKNKRNGLHCYN | No | Yes | No | Yes |  |  |
| G210E: mutation to UGT enzyme of SEQ ID NO: 13 (protein) MATKGSSGMSLAERFWLTLSRSSLVVGRSCVEFEPETVPLLSTLRGKPITFLGLMPPLHEGRREDGEDATVRWLDAQPAKSVVYVALGSEVPLGVEKVHELALGLELAGTRFLWALRKPTGVSDADLLPAGFEERTRGRGVVATRWVPQMSILAHAAVGAFLTHCGWNSTIEGLMFGHPLIMLPIFGDQGPNARLIEAKNAGLQVARNDEDGSFDREGVAAAIRAVAVEEESSKVFQAKAKKLQEIVADMACHERYIDGFIQQLRSYKDDSGYSSSYAAAAGMHVVICPWLAFGHLLPCLDLAQRLASRGHRVSFVSTPRNISRLPPVRPALAPLVAFVALPLPRVEGLPDGAESTNDVPHDRPDMVELHRRAFDGLAAPFSEFLGTACADWVIVDVFHHWAAAAALEHKVPCAMMLLGSAEMIASIADERLEHAETESPAAAGQGRPAAAPTFEVARMKLIR |  |  |  |  | 1.2 | 1.2 |
| C288F: mutation to UGT enzyme of SEQ ID NO: 13 (protein) MATKGSSGMSLAERFWLTLSRSSLVVGRSCVEFEPETVPLLSTLRGKPITFLGLMPPLHEGRREDGEDATVRWLDAQPAKSVVYVALGSEVPLGVEKVHELALGLELAGTRFLWALRKPTGVSDADLLPAGFEERTRGRGVVATRWVPQMSILAHAAVGAFLTHCGWNSTIEGLMFGHPLIMLPIFGDQGPNARLIEAKNAGLQVARNDGDGSFDREGVAAAIRAVAVEEESSKVFQAKAKKLQEIVADMACHERYIDGFIQQLRSYKDDSGYSSSYAAAAGMHVVIFPWLAFGHLLPCLDLAQRLASRGHRVSFVSTPRNISRLPPVRPALAPLVAFVALPLPRVEGLPDGAESTNDVPHDRPDMVELHRRAFDGLAAPFSEFLGTACADWVIVDVFHHWAAAAALEHKVPCAMMLLGSAEMIASIADERLEHAETESPAAAGQGRPAAAPTFEVARMKLIR |  |  |  |  | 1.7 | 1.5 |
| F186M: mutation to UGT enzyme of SEQ ID NO: 13 (protein) MATKGSSGMSLAERFWLTLSRSSLVVGRSCVEFEPETVPLLSTLRGKPITFLGLMPPLHEGRREDGEDATVRWLDAQPAKSVVYVALGSEVPLGVEKVHELALGLELAGTRFLWALRKPTGVSDADLLPAGFEERTRGRGVVATRWVPQMSILAHAAVGAFLTHCGWNSTIEGLMFGHPLIMLPIMGDQGPNARLIEAKNAGLQVARNDGDGSFDREGVAAAIRAVAVEEESSKVFQAKAKKLQEIVADMACHERYIDGFIQQLRSYKDDSGYSSSYAAAAGMHVVICPWLAFGHLLPCLDLAQRLASRGHRVSFVSTPRNISRLPPVRPALAPLVAFVALPLPRVEGLPDGAESTNDVPHDRPDMVELHRRAFDGLAAPFSEFLGTACADWVIVDVFHHWAAAAALEHKVPCAMMLLGSAEMIASIADERLEHAETESPAAAGQGRPAAAPTFEVARMKLIR |  |  |  |  | 2.9 | 2.3 |
| V91A: mutation to UGT enzyme of SEQ ID NO: 13 (protein) MATKGSSGMSLAERFWLTLSRSSLVVGRSCVEFEPETVPLLSTLRGKPITFLGLMPPLHEGRREDGEDATVRWLDAQPAKSVVYVALGSEAPLGVEKVHELALGLELAGTRFLWALRKPTGVSDADLLPAGFEERTRGRGVVATRWVPQMSILAHAAVGAFLTHCGWNSTIEGLMFGHPLIMLPIFGDQGPNARLIEAKNAGLQVARNDGDGSFDREGVAAAIRAVAVEEESSKVFQAKAKKLQEIVADMACHERYIDGFIQQLRSYKDDSGYSSSYAAAAGMHVVICPWLAFGHLLPCLDLAQRLASRGHRVSFVSTPRNISRLPPVRPALAPLVAFVALPLPRVEGLPDGAESTNDVPHDRPDMVELHRRAFDGLAAPFSEFLGTACADWVIVDVFHHWAAAAALEHKVPCAMMLLGSAEMIASIADERLEHAETESPAAAGQGRPAAAPTFEVARMKLIR |  |  |  |  | 1.1 | 1.1 |
| F186I: mutation to UGT enzyme of SEQ ID NO: 13 (protein) MATKGSSGMSLAERFWLTLSRSSLVVGRSCVEFEPETVPLLSTLRGKPITFLGLMPPLHEGRREDGEDATVRWLDAQPAKSVVYVALGSEVPLGVEKVHELALGLELAGTRFLWALRKPTGVSDADLLPAGFEERTRGRGVVATRWVPQMSILAHAAVGAFLTHCGWNSTIEGLMFGHPLIMLPIIGDQGPNARLIEAKNAGLQVARNDGDGSFDREGVAAAIRAVAVEEESSKVFQAKAKKLQEIVADMACHERYIDGFIQQLRSYKDDSGYSSSYAAAAGMHVVICPWLAFGHLLPCLDLAQRLASRGHRVSFVSTPRNISRLPPVRPALAPLVAFVALPLPRVEGLPDGAESTNDVPHDRPDMVELHRRAFDGLAAPFSEFLGTACADWVIVDVFHHWAAAAALEHKVPCAMMLLGSAEMIASIADERLEHAETESPAAAGQGRPAAAPTFEVARMKLIR |  |  |  |  | 2.6 | 2.1 |
| F186T: mutation to UGT enzyme of SEQ ID NO: 13 (protein) MATKGSSGMSLAERFWLTLSRSSLVVGRSCVEFEPETVPLLSTLRGKPITFLGLMPPLHEGRREDGEDATVRWLDAQPAKSVVYVALGSEVPLGVEKVHELALGLELAGTRFLWALRKPTGVSDADLLPAGFEERTRGRGVVATRWVPQMSILAHAAVGAFLTHCGWNSTIEGLMFGHPLIMLPITGDQGPNARLIEAKNAGLQVARNDGDGSFDREGVAAAIRAVAVEEESSKVFQAKAKKLQEIVADMACHERYIDGFIQQLRSYKDDSGYSSSYAAAAGMHVVICPWLAFGHLLPCLDLAQRLASRGHRVSFVSTPRNISRLPPVRPALAPLVAFVALPLPRVEGLPDGAESTNDVPHDRPDMVELHRRAFDGLAAPFSEFLGTACADWVIVDVFHHWAAAAALEHKVPCAMMLLGSAEMIASIADERLEHAETESPAAAGQGRPAAAPTFEVARMKLIR |  |  |  |  | 1.8 | 1.7 |
| A248G: mutation to UGT enzyme of SEQ ID NO: 13 (protein) MATKGSSGMSLAERFWLTLSRSSLVVGRSCVEFEPETVPLLSTLRGKPITFLGLMPPLHEGRREDGEDATVRWLDAQPAKSVVYVALGSEVPLGVEKVHELALGLELAGTRFLWALRKPTGVSDADLLPAGFEERTRGRGVVATRWVPQMSILAHAAVGAFLTHCGWNSTIEGLMFGHPLIMLPIFGDQGPNARLIEAKNAGLQVARNDGDGSFDREGVAAAIRAVAVEEESSKVFQAKAKKLQEIVGDMACHERYIDGFIQQLRSYKDDSGYSSSYAAAAGMHVVICPWLAFGHLLPCLDLAQRLASRGHRVSFVSTPRNISRLPPVRPALAPLVAFVALPLPRVEGLPDGAESTNDVPHDRPDMVELHRRAFDGLAAPFSEFLGTACADWVIVDVFHHWAAAAALEHKVPCAMMLLGSAEMIASIADERLEHAETESPAAAGQGRPAAAPTFEVARMKLIR |  |  |  |  | 1.1 | 1.1 |
